Values quoted from earlier work in US11376231B2, “Compositions of bioactive fulvate fractions and uses thereof” (OMNI BIOCEUTICAL INNOVATIONS, INC., priority 2016, dated 2022).
Like-named read-outs stand apart in the source and are kept apart here.

B1: PDGF-BB: platelet-derived growth factor BB (protein, UniProt P01127 82-190, looked up)
Platelet-derived growth …: SLGSLTIAEPAMIAECKTRTEVFEISRRLIDRTNANFLVWPPCVEVQRCSGCCNNRNVQCRPTQVQLRPVQVRKIEIVRKKPIFKKATVTLEDHLACKCETVAAARPVT
modifications: homodimer
B2: TGF-β2: transforming growth factor-β2 (protein, UniProt P61812 303-414, looked up)
Transforming growth factor …: ALDAAYCFRNVQDNCCLRPLYIDFKRDLGWKWIHEPKGYNANFCAGACPYLWSSDTQHSRVLSLYNTINPEASASPCCVSQDLEPLTILYYIGKTPKIEQLSNMIVKSCKCS
modifications: Transforming growth factor beta-2

Tested on: chronic wounds
Design: key: N.S. = not statistically significant

Molecule | Results (pressure (20), 1, 10, and 100 μg/mL daily, Robson et al.) | Results (pressure (45), 1 and 3 μg/mL daily, Mustoe et al.) | Results (venous (36), 2.5 μg/cm^2 three times per week, Robson et al.)
B1 | N.S. | N.S. | –
B2 | – | – | N.S.
